Assay results published in patent US20130315910A1 (Xencor, published 2013).

T1: human FcγRIIb receptor protein (R&D Systems) (human, UniProt P31994 46-217)
T1 construct: Bought protein injected over captured antibody in Biacore; also called CD32b
T1 sequence (looked up): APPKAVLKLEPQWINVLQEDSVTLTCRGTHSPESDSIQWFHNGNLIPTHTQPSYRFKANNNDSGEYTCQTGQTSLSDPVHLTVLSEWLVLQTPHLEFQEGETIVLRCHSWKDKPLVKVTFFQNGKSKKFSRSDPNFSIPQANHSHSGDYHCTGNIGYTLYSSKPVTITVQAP

T2: cynoFcγRIIb (Macaca fascicularis, UniProt A0A140HDP4)
T2 construct: extracellular region, C-terminal His- and GST-tag; also called cynomolgus monkey FcγRIIb
T2 sequence (receptor extracellular region): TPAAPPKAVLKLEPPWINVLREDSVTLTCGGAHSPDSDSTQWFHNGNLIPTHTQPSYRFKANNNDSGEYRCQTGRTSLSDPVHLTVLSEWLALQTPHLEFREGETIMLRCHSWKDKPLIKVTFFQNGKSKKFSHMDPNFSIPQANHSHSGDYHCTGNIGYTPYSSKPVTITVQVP

T3: mFcγRIIb (Mus musculus, UniProt P08101)
T3 construct: extracellular region, C-terminal His- and GST-tag; also called mouse FcγRII
T3 sequence (receptor extracellular region, looked up): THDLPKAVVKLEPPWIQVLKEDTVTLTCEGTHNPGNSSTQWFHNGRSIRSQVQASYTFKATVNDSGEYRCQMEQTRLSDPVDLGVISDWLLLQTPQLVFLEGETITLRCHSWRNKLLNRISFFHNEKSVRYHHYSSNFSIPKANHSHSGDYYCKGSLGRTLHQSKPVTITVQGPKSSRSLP


Legend:
Experiment in all cases: SPR
[1] = molecular target: T1, human FcγRIIb receptor protein (R&D …)
Description: (§1) Variants were screened for receptor affinity using Biacore™ technology, also referred to as Biacore herein, a surface plasmon resonance (SPR) based technology for studying biomolecular interactions in real time. SPR measurements were performed using a Biacore 3000 instrument (Biacore, Piscataway, N.J.). A protein A/G (Pierce Biotechnology) CM5 biosensor chip (Biacore) was generated using a standard primary amine coupling protocol. All measurements were performed using HBS-EP buffer (10 mM HEPES pH 7.4, 0.15 M NaCl, 3 mM EDTA, 0.005% vol/vol surfactant P20, Biacore). Antibodies at 20 nM or 50 nM in HBS-EP buffer were immobilized on the protein A/G surface and FcγRs were injected. After each cycle, the surface was regenerated by injecting glycine buffer (10 mM, pH 1.5). Data were processed by zeroing time and response before the injection of FcγR and by subtracting appropriate nonspecific signals (response of reference channel and injection of running buffer). Kinetic analyses were performed by global fitting of binding data with a 1:1 Langmuir binding model using BIAevaluation software (Biacore).

[2] = molecular target: T2, cynoFcγRIIb
Description: as §1
(§2) Variant antibodies were tested for their affinity to mouse or cynologous monkey FcγRs using Biacore SPR as described above. Specifically, antibodies were first immobilized on a protein A/G chip to high density, and then followed by injections of the extracellular domain of the mouse or cynologous monkey FcγR of interest. Both association and dissociation phases were tracked in real time using the Biacore technology.

[3] = molecular target: T3, mFcγRIIb
Description: as §1, §2

Binder	Fold vs WT IgG1 [1]	Kd [1]	Fold vs WT IgG1 (Kd) [2]	Fold vs WT IgG1 (Kd) [3]
L235F/H268D/L328Y (antibody, human IgG1, kappa, HuAM4G7 anti-CD19 IgG1 (m1) with these Fc substitutions, EU index; copies: 2 + 2) heavy: EVQLVESGGGLVKPGGSLKLSCAASGYTFTSYVMHWVRQAPGKGLEWIGYINPYNDGTKYNEKFQGRVTISSDKSISTAYMELSSLRSEDTAMYYCARGTYYYGTRVFDYWGQGTLVTVSSASTKGPSVFPLAPSSKSTSGGTAALGCLVKDYFPEPVTVSWNSGALTSGVHTFPAVLQSSGLYSLSSVVTVPSSSLGTQTYICNVNHKPSNTKVDKKVEPKSCDKTHTCPPCPAPELFGGPSVFLFPPKPKDTLMISRTPEVTCVVVDVSDEDPEVKFNWYVDGVEVHNAKTKPREEQYNSTYRVVSVLTVLHQDWLNGKEYKCKVSNKAYPAPIEKTISKAKGQPREPQVYTLPPSREEMTKNQVSLTCLVKGFYPSDIAVEWESNGQPENNYKTTPPVLDSDGSFFLYSKLTVDKSRWQQGNVFSCSVMHEALHNHYTQKSLSLSPGK light: DIVMTQSPATLSLSPGERATLSCRSSKSLQNVNGNTYLYWFQQKPGQSPQLLIYRMSNLNSGVPDRFSGSGSGTEFTLTISSLEPEDFAVYYCMQHLEYPITFGAGTKLEIKRTVAAPSVFIFPPSDEQLKSGTASVVCLLNNFYPREAKVQWKVDNALQSGNSQESVTEQDSKDSTYSLSSTLTLSKADYEKHKVYACEVTHQGLSSPVTKSFNRGEC	3.97 fold	0.37 µM	3.17 fold	6.82 fold
P331S (antibody, human IgG1, kappa, HuAM4G7 anti-CD19 IgG1 (m1) with this Fc substitution, EU index; copies: 2 + 2) heavy: not shown light: DIVMTQSPATLSLSPGERATLSCRSSKSLQNVNGNTYLYWFQQKPGQSPQLLIYRMSNLNSGVPDRFSGSGSGTEFTLTISSLEPEDFAVYYCMQHLEYPITFGAGTKLEIKRTVAAPSVFIFPPSDEQLKSGTASVVCLLNNFYPREAKVQWKVDNALQSGNSQESVTEQDSKDSTYSLSSTLTLSKADYEKHKVYACEVTHQGLSSPVTKSFNRGEC	0.0372 fold	39.4 µM	0.25 fold	0.085 fold
L235F/L328Y/I332E (antibody, human IgG1, kappa, HuAM4G7 anti-CD19 IgG1 (m1) with these Fc substitutions, EU index; copies: 2 + 2) heavy: EVQLVESGGGLVKPGGSLKLSCAASGYTFTSYVMHWVRQAPGKGLEWIGYINPYNDGTKYNEKFQGRVTISSDKSISTAYMELSSLRSEDTAMYYCARGTYYYGTRVFDYWGQGTLVTVSSASTKGPSVFPLAPSSKSTSGGTAALGCLVKDYFPEPVTVSWNSGALTSGVHTFPAVLQSSGLYSLSSVVTVPSSSLGTQTYICNVNHKPSNTKVDKKVEPKSCDKTHTCPPCPAPELFGGPSVFLFPPKPKDTLMISRTPEVTCVVVDVSHEDPEVKFNWYVDGVEVHNAKTKPREEQYNSTYRVVSVLTVLHQDWLNGKEYKCKVSNKAYPAPEEKTISKAKGQPREPQVYTLPPSREEMTKNQVSLTCLVKGFYPSDIAVEWESNGQPENNYKTTPPVLDSDGSFFLYSKLTVDKSRWQQGNVFSCSVMHEALHNHYTQKSLSLSPGK light: DIVMTQSPATLSLSPGERATLSCRSSKSLQNVNGNTYLYWFQQKPGQSPQLLIYRMSNLNSGVPDRFSGSGSGTEFTLTISSLEPEDFAVYYCMQHLEYPITFGAGTKLEIKRTVAAPSVFIFPPSDEQLKSGTASVVCLLNNFYPREAKVQWKVDNALQSGNSQESVTEQDSKDSTYSLSSTLTLSKADYEKHKVYACEVTHQGLSSPVTKSFNRGEC	3.31 fold	0.443 µM	4.11 fold	0.843 fold
L328Y/I332E (antibody, human IgG1, kappa, HuAM4G7 anti-CD19 IgG1 (m1) with these Fc substitutions, EU index; copies: 2 + 2) heavy: not shown light: DIVMTQSPATLSLSPGERATLSCRSSKSLQNVNGNTYLYWFQQKPGQSPQLLIYRMSNLNSGVPDRFSGSGSGTEFTLTISSLEPEDFAVYYCMQHLEYPITFGAGTKLEIKRTVAAPSVFIFPPSDEQLKSGTASVVCLLNNFYPREAKVQWKVDNALQSGNSQESVTEQDSKDSTYSLSSTLTLSKADYEKHKVYACEVTHQGLSSPVTKSFNRGEC	2.08 fold	0.705 µM	4.6 fold	0.434 fold

Results, then the binder that gave them:

Fold vs WT IgG1 [1]	Kd [1]	Fold vs WT IgG1 (Kd) [2]	Fold vs WT IgG1 (Kd) [3]	Binder
6.82 fold	0.215 µM	5.2 fold	31.2 fold	L235F/S239D/L328Y (antibody, human IgG1, kappa, HuAM4G7 anti-CD19 IgG1 (m1) with these Fc substitutions, EU index; copies: 2 + 2) heavy: EVQLVESGGGLVKPGGSLKLSCAASGYTFTSYVMHWVRQAPGKGLEWIGYINPYNDGTKYNEKFQGRVTISSDKSISTAYMELSSLRSEDTAMYYCARGTYYYGTRVFDYWGQGTLVTVSSASTKGPSVFPLAPSSKSTSGGTAALGCLVKDYFPEPVTVSWNSGALTSGVHTFPAVLQSSGLYSLSSVVTVPSSSLGTQTYICNVNHKPSNTKVDKKVEPKSCDKTHTCPPCPAPELFGGPDVFLFPPKPKDTLMISRTPEVTCVVVDVSHEDPEVKFNWYVDGVEVHNAKTKPREEQYNSTYRVVSVLTVLHQDWLNGKEYKCKVSNKAYPAPIEKTISKAKGQPREPQVYTLPPSREEMTKNQVSLTCLVKGFYPSDIAVEWESNGQPENNYKTTPPVLDSDGSFFLYSKLTVDKSRWQQGNVFSCSVMHEALHNHYTQKSLSLSPGK light: DIVMTQSPATLSLSPGERATLSCRSSKSLQNVNGNTYLYWFQQKPGQSPQLLIYRMSNLNSGVPDRFSGSGSGTEFTLTISSLEPEDFAVYYCMQHLEYPITFGAGTKLEIKRTVAAPSVFIFPPSDEQLKSGTASVVCLLNNFYPREAKVQWKVDNALQSGNSQESVTEQDSKDSTYSLSSTLTLSKADYEKHKVYACEVTHQGLSSPVTKSFNRGEC
53.2 fold	0.0276 µM	27.6 fold	2.59 fold	S239D/H268D/L328F/I332E (antibody, human IgG1, kappa, HuAM4G7 anti-CD19 IgG1 (m1) with these Fc substitutions, EU index; copies: 2 + 2) heavy: EVQLVESGGGLVKPGGSLKLSCAASGYTFTSYVMHWVRQAPGKGLEWIGYINPYNDGTKYNEKFQGRVTISSDKSISTAYMELSSLRSEDTAMYYCARGTYYYGTRVFDYWGQGTLVTVSSASTKGPSVFPLAPSSKSTSGGTAALGCLVKDYFPEPVTVSWNSGALTSGVHTFPAVLQSSGLYSLSSVVTVPSSSLGTQTYICNVNHKPSNTKVDKKVEPKSCDKTHTCPPCPAPELLGGPDVFLFPPKPKDTLMISRTPEVTCVVVDVSDEDPEVKFNWYVDGVEVHNAKTKPREEQYNSTYRVVSVLTVLHQDWLNGKEYKCKVSNKAFPAPEEKTISKAKGQPREPQVYTLPPSREEMTKNQVSLTCLVKGFYPSDIAVEWESNGQPENNYKTTPPVLDSDGSFFLYSKLTVDKSRWQQGNVFSCSVMHEALHNHYTQKSLSLSPGK light: DIVMTQSPATLSLSPGERATLSCRSSKSLQNVNGNTYLYWFQQKPGQSPQLLIYRMSNLNSGVPDRFSGSGSGTEFTLTISSLEPEDFAVYYCMQHLEYPITFGAGTKLEIKRTVAAPSVFIFPPSDEQLKSGTASVVCLLNNFYPREAKVQWKVDNALQSGNSQESVTEQDSKDSTYSLSSTLTLSKADYEKHKVYACEVTHQGLSSPVTKSFNRGEC
8.79 fold	0.167 µM	3.17 fold	6.01 fold	S239D/H268D/L328F (antibody, human IgG1, kappa, HuAM4G7 anti-CD19 IgG1 (m1) with these Fc substitutions, EU index; copies: 2 + 2) heavy: EVQLVESGGGLVKPGGSLKLSCAASGYTFTSYVMHWVRQAPGKGLEWIGYINPYNDGTKYNEKFQGRVTISSDKSISTAYMELSSLRSEDTAMYYCARGTYYYGTRVFDYWGQGTLVTVSSASTKGPSVFPLAPSSKSTSGGTAALGCLVKDYFPEPVTVSWNSGALTSGVHTFPAVLQSSGLYSLSSVVTVPSSSLGTQTYICNVNHKPSNTKVDKKVEPKSCDKTHTCPPCPAPELLGGPDVFLFPPKPKDTLMISRTPEVTCVVVDVSDEDPEVKFNWYVDGVEVHNAKTKPREEQYNSTYRVVSVLTVLHQDWLNGKEYKCKVSNKAFPAPIEKTISKAKGQPREPQVYTLPPSREEMTKNQVSLTCLVKGFYPSDIAVEWESNGQPENNYKTTPPVLDSDGSFFLYSKLTVDKSRWQQGNVFSCSVMHEALHNHYTQKSLSLSPGK light: DIVMTQSPATLSLSPGERATLSCRSSKSLQNVNGNTYLYWFQQKPGQSPQLLIYRMSNLNSGVPDRFSGSGSGTEFTLTISSLEPEDFAVYYCMQHLEYPITFGAGTKLEIKRTVAAPSVFIFPPSDEQLKSGTASVVCLLNNFYPREAKVQWKVDNALQSGNSQESVTEQDSKDSTYSLSSTLTLSKADYEKHKVYACEVTHQGLSSPVTKSFNRGEC
